From US20160168251A1 (MorphoSys, published 2016)

T1: human NPRA on HEK293 cells bound to ANP (human, UniProt P01160 124-151)
T1 sequence: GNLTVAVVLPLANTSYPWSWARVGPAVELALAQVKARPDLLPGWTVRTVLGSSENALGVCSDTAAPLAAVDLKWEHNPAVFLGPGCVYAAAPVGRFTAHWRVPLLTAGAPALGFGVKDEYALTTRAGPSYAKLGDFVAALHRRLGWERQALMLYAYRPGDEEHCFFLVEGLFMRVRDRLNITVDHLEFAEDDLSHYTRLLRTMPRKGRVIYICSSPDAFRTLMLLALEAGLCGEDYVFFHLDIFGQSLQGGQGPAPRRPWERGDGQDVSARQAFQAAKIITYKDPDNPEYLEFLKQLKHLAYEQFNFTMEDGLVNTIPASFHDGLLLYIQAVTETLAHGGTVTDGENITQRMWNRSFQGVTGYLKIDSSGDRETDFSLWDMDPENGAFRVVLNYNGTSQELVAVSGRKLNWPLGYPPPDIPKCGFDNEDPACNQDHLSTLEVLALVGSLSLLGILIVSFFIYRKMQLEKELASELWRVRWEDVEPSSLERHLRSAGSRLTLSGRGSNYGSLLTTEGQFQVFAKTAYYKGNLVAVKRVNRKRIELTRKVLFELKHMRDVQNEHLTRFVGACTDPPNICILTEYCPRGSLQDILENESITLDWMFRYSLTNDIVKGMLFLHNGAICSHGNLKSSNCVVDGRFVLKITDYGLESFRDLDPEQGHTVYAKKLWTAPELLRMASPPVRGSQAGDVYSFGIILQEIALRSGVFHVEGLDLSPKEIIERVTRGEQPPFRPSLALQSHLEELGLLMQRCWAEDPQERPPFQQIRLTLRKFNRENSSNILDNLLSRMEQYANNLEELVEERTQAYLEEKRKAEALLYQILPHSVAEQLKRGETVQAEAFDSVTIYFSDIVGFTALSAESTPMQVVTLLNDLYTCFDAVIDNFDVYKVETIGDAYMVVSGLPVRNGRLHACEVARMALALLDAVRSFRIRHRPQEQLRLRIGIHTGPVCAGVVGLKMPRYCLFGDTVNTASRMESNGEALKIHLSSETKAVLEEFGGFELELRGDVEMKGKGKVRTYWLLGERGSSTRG
T1 sequence (peptide): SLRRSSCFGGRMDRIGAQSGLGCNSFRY

T2: human NPRC on HEK293 cells, without added ligand (human, UniProt P17342 27-541)
T2 construct: whole, on cells; also called HEK NPRC cells; natriuretic peptide receptor C
T2 sequence (looked up): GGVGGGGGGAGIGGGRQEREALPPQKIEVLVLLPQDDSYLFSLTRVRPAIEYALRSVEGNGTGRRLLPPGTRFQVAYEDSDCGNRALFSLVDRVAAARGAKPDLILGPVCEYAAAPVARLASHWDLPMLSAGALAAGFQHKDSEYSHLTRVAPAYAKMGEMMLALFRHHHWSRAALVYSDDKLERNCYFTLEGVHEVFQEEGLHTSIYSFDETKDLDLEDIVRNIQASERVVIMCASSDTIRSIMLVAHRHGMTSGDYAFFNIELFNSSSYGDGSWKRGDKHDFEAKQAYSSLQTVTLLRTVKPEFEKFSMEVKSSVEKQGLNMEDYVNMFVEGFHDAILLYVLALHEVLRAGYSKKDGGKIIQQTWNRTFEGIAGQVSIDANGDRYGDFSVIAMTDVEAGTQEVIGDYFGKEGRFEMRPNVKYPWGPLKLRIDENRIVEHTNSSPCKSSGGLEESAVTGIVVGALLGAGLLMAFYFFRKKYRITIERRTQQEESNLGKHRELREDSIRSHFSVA

T3: human NPRC on HEK293 cells in the presence of ANP (human, UniProt P17342 27-541; P01160 124-151)
T3 construct: whole, on cells;mature; also called HEK NPRC cells + 100 nM ANP
T3 sequence (looked up): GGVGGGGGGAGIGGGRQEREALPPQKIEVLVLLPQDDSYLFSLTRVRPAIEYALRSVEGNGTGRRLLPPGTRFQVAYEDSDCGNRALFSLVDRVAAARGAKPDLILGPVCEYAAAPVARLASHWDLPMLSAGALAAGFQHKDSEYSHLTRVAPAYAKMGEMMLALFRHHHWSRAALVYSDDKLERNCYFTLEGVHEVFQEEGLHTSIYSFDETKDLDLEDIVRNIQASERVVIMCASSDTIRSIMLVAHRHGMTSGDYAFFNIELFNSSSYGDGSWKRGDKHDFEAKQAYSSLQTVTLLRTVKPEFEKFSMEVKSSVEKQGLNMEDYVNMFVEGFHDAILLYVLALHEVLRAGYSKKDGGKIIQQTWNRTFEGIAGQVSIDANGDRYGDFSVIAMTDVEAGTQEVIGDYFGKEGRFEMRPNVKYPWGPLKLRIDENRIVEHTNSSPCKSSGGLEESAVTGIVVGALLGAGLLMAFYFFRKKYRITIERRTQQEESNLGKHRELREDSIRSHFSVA
T3 sequence (peptide, looked up): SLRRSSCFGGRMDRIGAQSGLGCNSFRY

T4: human NPRC on HEK293 cells in the presence of BNP (human, UniProt P17342 27-541; P16860 103-134)
T4 construct: whole, on cells;mature; also called HEK NPRC cells + 100 nM BNP
T4 sequence (looked up): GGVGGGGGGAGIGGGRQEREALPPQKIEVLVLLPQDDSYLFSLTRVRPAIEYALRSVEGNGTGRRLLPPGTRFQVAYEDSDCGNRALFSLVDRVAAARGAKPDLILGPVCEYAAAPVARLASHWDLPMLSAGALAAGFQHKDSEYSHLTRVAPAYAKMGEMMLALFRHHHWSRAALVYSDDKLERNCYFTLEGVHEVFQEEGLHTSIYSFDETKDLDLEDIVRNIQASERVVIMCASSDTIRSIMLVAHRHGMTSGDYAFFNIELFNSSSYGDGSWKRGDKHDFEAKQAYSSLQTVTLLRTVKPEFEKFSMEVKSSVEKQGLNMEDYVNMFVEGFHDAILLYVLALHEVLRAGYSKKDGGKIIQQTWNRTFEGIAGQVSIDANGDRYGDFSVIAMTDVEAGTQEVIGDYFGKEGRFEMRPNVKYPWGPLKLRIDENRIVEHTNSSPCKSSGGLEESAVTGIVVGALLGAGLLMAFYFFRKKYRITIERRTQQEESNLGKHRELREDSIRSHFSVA
T4 sequence (peptide, looked up): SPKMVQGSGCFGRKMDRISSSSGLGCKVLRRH

B1: 5502 IgG4_Pro (antibody, V domains shown)
VH: QVQLQQSGPGLVKPSQTLSLTCAISGDSVSSRSASWSWIRQSPGRGLEWLGRIYYRSKWYNDYAVSVKSRITINPDTSKNQFSLQLNSVTPEDTAVYYCARMDVPSFRYFDVWGQGTLVTVSS
VL: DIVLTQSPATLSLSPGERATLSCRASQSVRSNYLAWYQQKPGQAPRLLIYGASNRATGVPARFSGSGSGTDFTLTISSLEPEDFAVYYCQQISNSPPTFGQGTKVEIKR
notes: Human IgG4_Pro
B2: 5591 IgG4_Pro (antibody, V domains shown)
VH: QVQLQQSGPGLVKPSQTLSLTCAISGDSVSSRSASWSWIRQSPGRGLEWLGRTYYRSHWYYEYAQSVKSRITINPDTSKNQFSLQLNSVTPEDTAVYYCARMDVPSFRYFDVWGQGTLVTVSS
VL: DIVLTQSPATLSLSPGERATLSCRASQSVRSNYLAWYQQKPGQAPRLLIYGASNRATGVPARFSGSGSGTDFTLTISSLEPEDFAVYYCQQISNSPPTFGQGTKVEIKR
B3: 5592 IgG4_Pro (antibody, V domains shown)
VH: QVQLQQSGPGLVKPSQTLSLTCAISGDSVSSRSASWSWIRQSPGRGLEWLGRTYYRSHWYYEYAQSVKSRITINPDTSKNQFSLQLNSVTPEDTAVYYCARMDVPSFRYFDVWGQGTLVTVSS
VL: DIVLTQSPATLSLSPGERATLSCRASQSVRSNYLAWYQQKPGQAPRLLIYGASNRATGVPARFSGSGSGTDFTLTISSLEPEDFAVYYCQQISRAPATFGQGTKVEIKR

Legend:
[1] = target: T1, human NPRA on HEK293 cells bound to ANP; test: cell-based or functional assay
[2] = target: T5, NPRA-Fc fusion protein bound to BNP (human, UniProt P16860 103-134); test: SPR (Biacore 3000), NPRA-Fc amine-coupled on CM5, IgG with 100 nM human BNP
T5 construct: mature; Receptor-ligand complex; also called NPRA-Fc in the presence of BNP
Procedure: In another assay, the purified human NPRA-Fc fusion protein construct is used to develop a surface plasmon resonance (BIAcore) assay for determining affinity and kinetic constants for the antibodies. NPRA-Fc in 10 mM sodium acetate buffer, pH 5.5 is immobilized on a CM5 chip in a Biacore 3000 instrument (GE Healthcare, Biacore, Inc.) through amine coupling at a density of 1000 RU. […] The collected association and dissociation data from each experiment is globally fitted with the association (kₐ) and dissociation (kd) rates fit simultaneously.

[3] = target: T2, human NPRC on HEK293 cells, without …; test: FACS, HEK NPRC cells without ligand
Procedure: (§1) HEK NPRA cells are detached with Accutase (PAA Laboratories GmbH, Cat. No. L11-007, Austria), harvested by centrifugation (900 rpm, 4 minutes) and resuspended in FACS buffer (PBS/3% FCS/0.02% NaN3) to a final concentration of 10⁶ cells/ml. 100 μl of the cell suspension is transferred to each well of a 96 round bottom plate (TC Microwell 96U, Nunc). […] Cells are washed in 150 μl of FACS buffer, pelleted and resuspended in 50 μl of the solution containing the primary antibody comprising a BEL extract of Fabs, a diluted BEL extract or purified antibody diluted in FACS buffer and incubated on ice for 30 min. Cells are washed again in FACS buffer and resuspended in 50 μl of FACS buffer containing the secondary antibody (R-Phycoerythrin-conjugated Affipure F(ab′)₂ Fragment Goat Anti-Human IgG, Dianova) and incubated on ice for 45 min. Cells are washed twice with FACS buffer and resuspended in 200 μl of FACS buffer for analysis in the FACS Array (BD Biosciences).

[4] = target: T1, human NPRA on HEK293 cells bound to ANP; test: FACS, IgG4_Pro on HEK NPRA cells in the presence of 100 nM ANP
Procedure: as §1

[5] = target: T3, human NPRC on HEK293 cells in the …; test: FACS, HEK NPRC cells with 100 nM ANP
Procedure: as §1

[6] = target: T1, human NPRA on HEK293 cells bound to ANP; test: cell-based or functional assay; remark: listed apart in the source
[7] = target: T4, human NPRC on HEK293 cells in the …; test: FACS, HEK NPRC cells with 100 nM BNP
Procedure: as §1

[8] = target: T6, NPRA-Fc fusion protein bound to urodilatin (human, UniProt P01160 120-151); test: SPR (Biacore 3000), NPRA-Fc amine-coupled on CM5, IgG with 100 nM human urodilatin
T6 construct: Receptor-ligand complex; also called NPRA-Fc in the presence of urodilatin

[9] = target: T7, NPRA-Fc fusion protein bound to ANP (human, UniProt P01160 124-151); test: SPR (Biacore 3000), NPRA-Fc amine-coupled on CM5, analyte with 100 nM human ANP
T7 construct: mature; Receptor-ligand complex; 'human ANP' is stated for Biacore, plain 'ANP' for ELISA and HXMS; also called NPRA-Fc+ANP

[10] = target: T8, human NPRB on HEK293 cells in the presence of CNP (human, UniProt P20594 23-1047; P23582 105-126); test: FACS, HEK NPRB cells with 100 nM CNP
T8 construct: whole, on cells;mature; also called HEK NPRB cells + 100 nM CNP
T8 sequence (P20594 23-1047 limits assumed, chain 1 of 2): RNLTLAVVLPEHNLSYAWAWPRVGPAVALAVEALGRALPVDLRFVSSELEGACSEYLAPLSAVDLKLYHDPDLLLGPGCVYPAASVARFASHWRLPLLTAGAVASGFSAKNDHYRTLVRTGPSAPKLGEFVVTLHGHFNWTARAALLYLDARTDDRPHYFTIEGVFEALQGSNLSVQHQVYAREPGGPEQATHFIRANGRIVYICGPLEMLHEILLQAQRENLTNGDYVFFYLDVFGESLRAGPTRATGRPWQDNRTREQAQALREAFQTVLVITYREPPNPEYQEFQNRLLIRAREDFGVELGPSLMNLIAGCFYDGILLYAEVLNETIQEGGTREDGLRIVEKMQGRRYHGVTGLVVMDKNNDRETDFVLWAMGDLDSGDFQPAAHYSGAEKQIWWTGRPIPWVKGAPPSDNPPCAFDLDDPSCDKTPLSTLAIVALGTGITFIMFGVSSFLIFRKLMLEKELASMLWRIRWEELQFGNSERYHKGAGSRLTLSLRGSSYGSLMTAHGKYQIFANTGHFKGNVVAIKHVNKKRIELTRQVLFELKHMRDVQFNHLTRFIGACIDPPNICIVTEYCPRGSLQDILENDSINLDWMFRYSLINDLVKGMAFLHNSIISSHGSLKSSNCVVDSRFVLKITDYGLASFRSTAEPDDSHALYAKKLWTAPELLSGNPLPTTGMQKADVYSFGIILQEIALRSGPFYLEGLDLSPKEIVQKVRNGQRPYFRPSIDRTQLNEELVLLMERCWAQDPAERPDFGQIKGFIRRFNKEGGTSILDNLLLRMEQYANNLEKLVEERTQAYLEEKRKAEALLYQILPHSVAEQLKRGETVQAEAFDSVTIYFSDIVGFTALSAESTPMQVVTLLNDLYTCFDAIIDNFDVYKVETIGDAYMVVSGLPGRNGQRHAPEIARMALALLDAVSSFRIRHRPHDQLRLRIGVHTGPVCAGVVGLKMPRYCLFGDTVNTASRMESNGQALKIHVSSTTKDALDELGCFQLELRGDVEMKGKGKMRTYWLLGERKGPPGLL
T8 sequence (P23582 105-126 limits assumed, chain 2 of 2): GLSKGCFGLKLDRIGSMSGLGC
Procedure: as §1

Binder	cGMP EC50 (nM), titration of the antibody on HEK NPRA cells with 200 pM ANP [1]	Kd [2]	koff [2]	kon [2]	binding result [3]	EC50 [4]	binding result [5]	fold increase in the potency of ANP (cGMP, HEK NPRA cells, 200 nM IgG4_Pro) [6]	binding result [7]	Kd [8]	koff [8]	kon [8]	Kd [9]	koff [9]	kon [9]	binding result [10]
B1	2.1 nM	0.413 nM	0.000563 s⁻¹	1.36e+06 M⁻¹ s⁻¹	no binding (tested: 20 nM)	0.68 nM	no binding (tested: 20 nM)	≤ 10 fold	no binding (tested: 20 nM)	0.211 nM	0.000448 s⁻¹	2.12e+06 M⁻¹ s⁻¹	0.172 nM	0.000283 s⁻¹	1.65e+06 M⁻¹ s⁻¹	
B2	0.5 nM	0.38 nM	0.00102 s⁻¹	2.69e+06 M⁻¹ s⁻¹	no binding (tested: 20 nM)	0.73 nM	no binding (tested: 20 nM)	≤ 10 fold	no binding (tested: 20 nM)	0.0928 nM	0.000238 s⁻¹	2.56e+06 M⁻¹ s⁻¹	0.0275 nM	0.000107 s⁻¹	3.88e+06 M⁻¹ s⁻¹	no binding (tested: 20 nM)
B3	1 nM	0.0459 nM	0.00034 s⁻¹	7.42e+06 M⁻¹ s⁻¹	no binding (tested: 20 nM)	0.52 nM	no binding (tested: 20 nM)	≤ 10 fold	no binding (tested: 20 nM)	0.0251 nM	9.94e-05 s⁻¹	3.96e+06 M⁻¹ s⁻¹	0.011 nM	0.000106 s⁻¹	9.59e+06 M⁻¹ s⁻¹	no binding (tested: 20 nM)
